{"source": "patent US20020012949A1", "about": "“Assay systems for leptin-enhancing agents” (priority 1997, published 2002)", "biological_target": "T1, OB-R (Homo sapiens, UniProt P48357)", "T1 construct": "The cytoplasmic domain and full-length human OB-R was cloned by PCR; expressed in transfected cells; host or cells: COS-7", "T1 sequence (P48357 22-1165)": "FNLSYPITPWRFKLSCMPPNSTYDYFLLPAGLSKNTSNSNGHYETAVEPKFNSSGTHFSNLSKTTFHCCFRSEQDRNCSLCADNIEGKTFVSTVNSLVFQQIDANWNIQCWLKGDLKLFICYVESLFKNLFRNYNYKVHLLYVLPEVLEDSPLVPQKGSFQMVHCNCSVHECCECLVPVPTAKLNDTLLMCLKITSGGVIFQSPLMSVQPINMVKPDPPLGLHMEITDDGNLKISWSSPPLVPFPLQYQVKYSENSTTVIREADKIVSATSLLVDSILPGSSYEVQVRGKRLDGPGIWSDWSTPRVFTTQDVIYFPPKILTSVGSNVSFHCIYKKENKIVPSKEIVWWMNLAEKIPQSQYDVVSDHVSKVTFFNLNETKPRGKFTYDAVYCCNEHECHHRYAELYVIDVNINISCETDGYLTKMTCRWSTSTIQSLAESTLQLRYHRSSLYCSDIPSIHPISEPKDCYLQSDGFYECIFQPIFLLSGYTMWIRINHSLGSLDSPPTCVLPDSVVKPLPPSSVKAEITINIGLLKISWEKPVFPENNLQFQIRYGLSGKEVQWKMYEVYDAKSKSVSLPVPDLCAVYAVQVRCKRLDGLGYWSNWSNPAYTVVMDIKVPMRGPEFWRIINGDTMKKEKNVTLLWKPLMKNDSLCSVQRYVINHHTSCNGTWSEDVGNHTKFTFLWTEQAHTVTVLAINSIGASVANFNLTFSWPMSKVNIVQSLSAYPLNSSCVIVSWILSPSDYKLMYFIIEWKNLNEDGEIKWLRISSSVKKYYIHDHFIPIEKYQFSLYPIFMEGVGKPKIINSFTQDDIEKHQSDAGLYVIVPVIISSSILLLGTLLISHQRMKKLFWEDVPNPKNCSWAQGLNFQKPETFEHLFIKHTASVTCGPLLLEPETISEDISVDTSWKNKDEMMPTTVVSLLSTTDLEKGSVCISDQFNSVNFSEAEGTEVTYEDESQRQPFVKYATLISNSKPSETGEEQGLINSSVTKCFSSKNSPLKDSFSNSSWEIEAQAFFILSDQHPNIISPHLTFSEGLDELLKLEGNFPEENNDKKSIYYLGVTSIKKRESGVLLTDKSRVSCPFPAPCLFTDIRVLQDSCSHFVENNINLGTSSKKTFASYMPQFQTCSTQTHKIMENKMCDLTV", "test": "Luciferase reporter gene assay (3(G3)-Cy6-LUC), leptin stimulation of COS cells expressing wild type OB-R", "type": "cell-based", "settings": "100 ng/ml leptin for 24 hours, stimulated vs non-stimulated", "protocol": "The cytoplasmic domain and full-length human OB-R was cloned by PCR using human fetal liver and adipocyte cDNA (Clontech) and cloned into the expression vectors pCMX and pMT21. Chimeric receptors were constructed by fusing the extracellular domain and transmembrane domain of TrkC (amino acids 1 to 458) to the cytoplasmic domain of OB-R (amino acids 865-1165). A triple myc epitope tag was added at the C-terminus of all OB-R constructs (18). Truncation and point mutant constructs were generated by PCR and the sequences of all constructs were verified. Expression constructs were transfected into COS-7 cells using lipofectamine (GIBCO-BRL); 36-48 hours after transfection, cells were starved for either 2 hour,s for chimeric receptors or overnight for full-length receptors prior to stimulation.\nExpression constructs (1 μg) for OB-R, OB-RY1141F, OB-RY986F, OB-RY1078, 1079F, and OB-RY986, 1141F were co-transfected with 1 μg of 3(G3)-Cy6-LUC and 0.1 μg of pCMX.LacZ into COS-7 cells (6-well dishes) using lipofectamine. The day after transfection, media was changed to serum-free OptiMEM (GIBCO-BRL) and then treated with 100 ng/ml murine leptin (PeproTech) or human leptin (R&D Systems) for 24 hours. […] Luciferase and β-galactosidase activities were measured in cell lysates (30) and luciferase activity was normalized to β-galactosidase activity to control for transfection differences. […]"}
{"substance": "leptin: the product of the obese gene, secreted by adipocytes; ligand of OB-R", "values": [{"measurement": "induction of luciferase activity", "value": 6, "unit": "fold"}]}
